Self-cleavage data for 32 variants are collected here from the RNAGym collection of RNA variant scans (doi:10.7554/elife.80360).

The labels stand for the following.
B1: HDV Ribozyme (parent)
chain: GGCCGGCAUGGUCCCAGCCUCCUCGCUGGCGCCGGCUGGGCAACAUUCCGAGGGGACCGUCCCCUCGGUAAUGGCGAAUGGGACCCA

Variants of B1 are the subject of the series. The series is described as follows: self-cleavage, relative activity (ratio to wild type); higher = more cleavage; co-transcriptional.
As for GGCCGGCUUGGUCACAGCCUCCUCGCUGGCGCCGGCUGGGCAACAUUCCGAGGGGACCGUCCCCUCGGUAAUGGCGAAUGGGACCCA, the self-cleavage amounted to 0.192.

As for GGCCGGCUUGGUCCCAGCCUCCUCGCUGGCGCCGGCUGGGCAUCAUUCCGAGGGGACCGUCCCCUCGGUAAUGGCGAAUGGGACCCA, the self-cleavage is 0.125.

In the case of GGCCGGCUUGGUCCCAGCCUCCUCGCUGGCGCCGGCUGGGCACCAUUCCGAGGGGACCGUCCCCUCGGUAAUGGCGAAUGGGACCCA, the self-cleavage amounted to 0.453.

GGCCGGCUUGGUCCCAGCCUCCUCGCUGGCGCCGGCUGGGCAACAUUCCGAGGGGACCGUCCCCUCGGUAAUGGGGAAUGGGACCCA: the self-cleavage stood at 0.142.

In the case of GGCCGGCUUGGUCCCAGCCUCCUCACUGGCGCCGGCUGGGCAACAUUCCGAGGGGACCGUCCCCUCGGUAAUGGCGAAUGGGACCCA, the self-cleavage stood at 0.

On to GGCCGGCGUGGUCCCAGCCUCCUCGCUGGCGCCGGCUGGGCAACAUACCGAGGGGACCGUCCCCUCGGUAAUGGCGAAUGGGACCCA, for which the self-cleavage stood at 1.05.

GGCCGGCGUGGUCCCAGCCUCCUCGCUGGCGCCGGCUGGGCAACAUGCCGAGGGGACCGUCCCCUCGGUAAUGGCGAAUGGGACCCA: the self-cleavage turned out to be 0.782.

Regarding GGCCGGCGUGGUCCCAGCCUCCUCGCUGGCGCCGGCUGGGCAACAUCCCGAGGGGACCGUCCCCUCGGUAAUGGCGAAUGGGACCCA, the self-cleavage was found to be 1.07.

Consider GGCCGGCGUGGUCCCAGCCUCCUCGCUGGCGCCGGCUGGGCAACAUUCCGAGGGGACCGUCCCCUCGGUAAUGGCGAAUGGCACCCA, for which the self-cleavage stood at 0.128.

For the variant GGCCGGCUUGGUCCCAGCCUCCUCGCGGGCGCCGGCUGGGCAACAUUCCGAGGGGACCGUCCCCUCGGUAAUGGCGAAUGGGACCCA, the self-cleavage turned out to be 0.906.

In the case of GGCCGGCUUGGUCCCAGCCUCCUCGCUGGCGCCGGCUGGGCAACAUUCCGAGGGGACGGUCCCCUCGGUAAUGGCGAAUGGGACCCA, the self-cleavage came out at 0.582.

Turning to GGCCGGCUUGGUCCCAGCCUCCUGGCUGGCGCCGGCUGGGCAACAUUCCGAGGGGACCGUCCCCUCGGUAAUGGCGAAUGGGACCCA, the self-cleavage is 0.0405.

For GGCCGGCUUGGUCCCAGCCUCCUCGCUGGCGCCGGCUGGGCAACAUUCCGAGGGGACCGUCCCCUCGGUAAUGGCGAAUGGGAUCCA, the self-cleavage was determined as 0.506.

In the case of GGCCGGCUUGGUCCCAGCCUCCUCGCUGGCGCCGGCUGGGCAACAUUCCGAGGGGACCGUCCCCUCGGUAAUGGCGAAUGGGAACCA, the self-cleavage was 0.95.

Take GGCCGGCUUGGUCCCAGCCUCCUCGCUGGCGCCGGCUGGGCAACAUUCCGAGGCGACCGUCCCCUCGGUAAUGGCGAAUGGGACCCA: the self-cleavage was 0.538.

For GGCCGGCUUGGUCCCAGCCUCCUCGCUGGCGCCGGCUGGGCAACGUUCCGAGGGGACCGUCCCCUCGGUAAUGGCGAAUGGGACCCA, the self-cleavage was found to be 0.489.

Turning to GGCCGGCUUGGUCCCAGCCUCCUCGCUGGCGCCGGCUGGGCAACUUUCCGAGGGGACCGUCCCCUCGGUAAUGGCGAAUGGGACCCA, the self-cleavage is 0.587.

Take GGCCGGCUUGGCCCCAGCCUCCUCGCUGGCGCCGGCUGGGCAACAUUCCGAGGGGACCGUCCCCUCGGUAAUGGCGAAUGGGACCCA: the self-cleavage stood at 0.227.

Take GGCCGGCUUGGUCCCAGCCUCCUCGCUGGCGCCGGCUGGGGAACAUUCCGAGGGGACCGUCCCCUCGGUAAUGGCGAAUGGGACCCA: the self-cleavage is 0.506.

As to GGCCGGCUUGGUCCCAGCCUCCACGCUGGCGCCGGCUGGGCAACAUUCCGAGGGGACCGUCCCCUCGGUAAUGGCGAAUGGGACCCA, the self-cleavage was 0.804.

On to GGCCGGCUUGGUCCCAGCCGCCUCGCUGGCGCCGGCUGGGCAACAUUCCGAGGGGACCGUCCCCUCGGUAAUGGCGAAUGGGACCCA, for which the self-cleavage amounted to 0.166.

As to GGCCGGCUUGGUCCCAGCCUCCUCGCUGGGGCCGGCUGGGCAACAUUCCGAGGGGACCGUCCCCUCGGUAAUGGCGAAUGGGACCCA, the self-cleavage stood at 0.0369.

With GGCCGGCUUGGUCCCAGCCUCCUCGCUGGCGCCGGCUGGGCCACAUUCCGAGGGGACCGUCCCCUCGGUAAUGGCGAAUGGGACCCA, the self-cleavage amounted to 0.0692.

GGCCGGCUUGGUCCCAGCGUCCUCGCUGGCGCCGGCUGGGCAACAUUCCGAGGGGACCGUCCCCUCGGUAAUGGCGAAUGGGACCCA: the self-cleavage was found to be 0.106.

GGCCGGCUUGGUCCCAGCCUCCUCGCUGGCGCCGGCUGGGCAACAUUCCGAGGGGACCGUCCCCUCGGUAAUGGCGAAUGGGACGCA: the self-cleavage amounted to 0.883.

Consider GGCCGGCUUGGUCCCAGCCUCCUCGCUGGCGCCGGCUGGGCAACAUUCCGAGGGGACCGUCCCCUCGGUAAUGGCGAAUGGGACACA, for which the self-cleavage stood at 0.959.

Take GGCCGGCUUGGUCCCAGCCUCCUCGCUGGCGCCGGCUGGGCAACAUUCCGAGGGGACCGUCCCCUCGGUAAUGGCGAAUGGGACUCA: the self-cleavage was 1.09.

As for GGCCGGCUUGGUCCCAGCCUCCUCGCUGGCGCCGGCUGGGCAACAUUCCAAGGGGACCGUCCCCUCGGUAAUGGCGAAUGGGACCCA, the self-cleavage came to 0.739.

Turning to GGCCGGCUUGGUCCCAGCCUCCUCGCUGGCGCCGGCUGGGCAACAUUCCGAGGGGACCGUCCCCUCGGUAAUGGCGACUGGGACCCA, the self-cleavage came out at 0.128.

As to GGCCGGCGUGGUCCCAGCCUCCUCGCUGGCGCCGGCUGGGCAACAUUCCGAGGGGACCGUCCCCGCGGUAAUGGCGAAUGGGACCCA, the self-cleavage worked out at 0.906.

Consider GGCCGGCUUGGUCCCAGCCUCCUCGCUGGCGCCGGCUGUGCAACAUUCCGAGGGGACCGUCCCCUCGGUAAUGGCGAAUGGGACCCA, for which the self-cleavage turned out to be 0.571.

In the case of GGCCGGCUUGCUCCCAGCCUCCUCGCUGGCGCCGGCUGGGCAACAUUCCGAGGGGACCGUCCCCUCGGUAAUGGCGAAUGGGACCCA, the self-cleavage was 0.0978.
